Assay results from patent US20140242080A1 (Hoffmann-La Roche, published 2014).

T1: hu-MCSP(D3 domain)-avi-his (human, UniProt Q6UVK1 1582-2224)
T1 construct: Recombinant D3 domain with avi and his tags; also called human MCSP(D3 domain)-avi-his; Human MCSP D3
T1 sequence: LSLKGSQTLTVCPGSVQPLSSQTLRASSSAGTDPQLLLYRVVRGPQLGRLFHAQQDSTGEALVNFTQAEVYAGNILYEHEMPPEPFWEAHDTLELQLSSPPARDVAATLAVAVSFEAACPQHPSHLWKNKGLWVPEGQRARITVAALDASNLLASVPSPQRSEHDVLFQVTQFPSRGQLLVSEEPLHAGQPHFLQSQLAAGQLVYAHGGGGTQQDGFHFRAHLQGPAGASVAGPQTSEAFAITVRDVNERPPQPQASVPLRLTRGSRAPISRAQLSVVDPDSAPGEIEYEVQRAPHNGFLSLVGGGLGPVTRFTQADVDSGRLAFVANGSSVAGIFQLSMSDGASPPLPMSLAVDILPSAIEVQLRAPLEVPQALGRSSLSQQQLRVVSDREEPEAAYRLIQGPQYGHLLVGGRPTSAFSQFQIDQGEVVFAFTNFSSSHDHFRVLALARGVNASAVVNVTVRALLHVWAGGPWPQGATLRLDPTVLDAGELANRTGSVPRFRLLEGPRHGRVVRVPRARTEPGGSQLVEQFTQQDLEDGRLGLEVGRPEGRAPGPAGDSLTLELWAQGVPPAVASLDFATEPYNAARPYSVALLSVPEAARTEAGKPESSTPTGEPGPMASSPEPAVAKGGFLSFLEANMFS

B1: 2 + 1 IgG Crossfab; CL/CH1 exchange (M4-3 ML2/V9) (anti-MCSP/anti-huCD3) (bispecific antibody)
chain 1: DIQMTQSPSSLSASVGDRVTITCRASQDIRNYLNWYQQKPGKAPKLLIYYTSRLESGVPSRFSGSGSGTDYTLTISSLQPEDFATYYCQQGNTLPWTFGQGTKVEIKSSASTKGPSVFPLAPSSKSTSGGTAALGCLVKDYFPEPVTVSWNSGALTSGVHTFPAVLQSSGLYSLSSVVTVPSSSLGTQTYICNVNHKPSNTKVDKKVEPKSC
chain 2: not shown
chain 3: QVQLQESGPGLVKPSQTLSLTCTVSGGSITSGYYWNWIRQHPGKGLEWIGYITYDGSNNYNPSLKSRVTISRDTSKNQFSLKLSSVTAADTAVYYCADFDYWGQGTLVTVSSASTKGPSVFPLAPSSKSTSGGTAALGCLVKDYFPEPVTVSWNSGALTSGVHTFPAVLQSSGLYSLSSVVTVPSSSLGTQTYICNVNHKPSNTKVDKKVEPKSCDKTHTCPPCPAPEAAGGPSVFLFPPKPKDTLMISRTPEVTCVVVDVSHEDPEVKFNWYVDGVEVHNAKTKPREEQYNSTYRVVSVLTVLHQDWLNGKEYKCKVSNKALGAPIEKTISKAKGQPREPQVCTLPPSRDELTKNQVSLSCAVKGFYPSDIAVEWESNGQPENNYKTTPPVLDSDGSFFLVSKLTVDKSRWQQGNVFSCSVMHEALHNHYTQKSLSLSPGK
chain 4: not shown
B2: 2 + 1 IgG Crossfab; VL/VH exchange (M4-3 ML2/V9) (anti-MCSP/anti-huCD3) (bispecific antibody)
chain 1: EVQLVESGGGLVQPGGSLRLSCAASGYSFTGYTMNWVRQAPGKGLEWVALINPYKGVSTYNQKFKDRFTISVDKSKNTAYLQMNSLRAEDTAVYYCARSGYYGDSDWYFDVWGQGTLVTVSSASVAAPSVFIFPPSDEQLKSGTASVVCLLNNFYPREAKVQWKVDNALQSGNSQESVTEQDSKDSTYSLSSTLTLSKADYEKHKVYACEVTHQGLSSPVTKSFNRGEC
chain 2: not shown
chain 3: not shown
chain 4: QVQLQESGPGLVKPSQTLSLTCTVSGGSITSGYYWNWIRQHPGKGLEWIGYITYDGSNNYNPSLKSRVTISRDTSKNQFSLKLSSVTAADTAVYYCADFDYWGQGTLVTVSSASTKGPSVFPLAPSSKSTSGGTAALGCLVKDYFPEPVTVSWNSGALTSGVHTFPAVLQSSGLYSLSSVVTVPSSSLGTQTYICNVNHKPSNTKVDKKVEPKSCDKTHTCPPCPAPEAAGGPSVFLFPPKPKDTLMISRTPEVTCVVVDVSHEDPEVKFNWYVDGVEVHNAKTKPREEQYNSTYRVVSVLTVLHQDWLNGKEYKCKVSNKALGAPIEKTISKAKGQPREPQVCTLPPSRDELTKNQVSLSCAVKGFYPSDIAVEWESNGQPENNYKTTPPVLDSDGSFFLVSKLTVDKSRWQQGNVFSCSVMHEALHNHYTQKSLSLSPGK
B3: Parental M4-3/ML2 Fab (Fab, V domains shown)
VH: QVQLQESGPGLVKPSQTLSLTCTVSGGSITSGYYWNWIRQHPGKGLEWIGYITYDGSNNYNPSLKSRVTISRDTSKNQFSLKLSSVTAADTAVYYCADFDYWGQGTLVTVSS
VL: DIQMTQSPSSLSASVGDRVTITCRASQGIRNYLNWYQQKPGKAPKLLIYYTSSLHSGVPSRFSGSGSGTDFTLTISSLQPEDFATYYCQQYSKLPWTFGQGTKVEIK
notes: Soluble Fab with Flag tag, bacterial supernatant or purified; also called non-matured parental clone
B4: M4-3/ML2(G3) Fab (Fab, V domains shown)
VH: QVQLQESGPGLVKPSQTLSLTCTVSGGSITSGYYWNWIRQHPGKGLEWIGYITYDGSNNYNPSLKSRVTISRDTSKNQFSLKLSSVTAADTAVYYCADFDYWGQGTLVTVSS
VL: DIQMTQSPSSLSASVGDRVTITCRASQGIRNYLNWYQQKPGKAPKLLIYYTSSLHSGVPSRFSGSGSGTDYTLTISSLQPEDFATYYCQQYSALPWTFGQGTKVEIK
notes: Soluble Fab with Flag tag
B5: M4-3(A7)/ML2 Fab (Fab, V domains shown)
VH: QVQLQESGPGLVKPSQTLSLTCTVSGGSITDGYYWNWIRQHPGKGLEWIGYITFDGRNNYNPSLKSRVTISRDTSKNQFSLKLSSVTAADTAVYYCADFDYWGQGTLVTVSS
VL: DIQMTQSPSSLSASVGDRVTITCRASQGIRNYLNWYQQKPGKAPKLLIYYTSSLHSGVPSRFSGSGSGTDFTLTISSLQPEDFATYYCQQYSKLPWTFGQGTKVEIK
notes: Soluble Fab with Flag tag
B6: M4-3(D6)/ML2 Fab (Fab, V domains shown)
VH: QVQLQESGPGLVKPSQTLSLTCTVSGGSITSGYYWNWIRQHPGKGLEWIGYITFDGKNNYNPSLKSRVTISRDTSKNQFSLKLSSVTAADTAVYYCADFDYWGQGTLVTVSS
VL: DIQMTQSPSSLSASVGDRVTITCRASQGIRNYLNWYQQKPGKAPKLLIYYTSSLHSGVPSRFSGSGSGTDFTLTISSLQPEDFATYYCQQYSKLPWTFGQGTKVEIK
notes: Soluble Fab with Flag tag
B7: M4-3(B8)/ML2 Fab (Fab, V domains shown)
VH: QVQLQESGPGLVKPSQTLSLTCTVSGGSITSGYYWNWIRQHPGKGLEWIGYITFDGRNNYNPSLKSRVTISRDTSKNQFSLKLSSVTAADTAVYYCADFDYWGQGTLVTVSS
VL: DIQMTQSPSSLSASVGDRVTITCRASQGIRNYLNWYQQKPGKAPKLLIYYTSSLHSGVPSRFSGSGSGTDFTLTISSLQPEDFATYYCQQYSKLPWTFGQGTKVEIK
notes: Soluble Fab with Flag tag
B8: M4-3/ML2(E10) Fab (Fab, V domains shown)
VH: QVQLQESGPGLVKPSQTLSLTCTVSGGSITSGYYWNWIRQHPGKGLEWIGYITYDGSNNYNPSLKSRVTISRDTSKNQFSLKLSSVTAADTAVYYCADFDYWGQGTLVTVSS
VL: DIQMTQSPSSLSASVGDRVTITCRASYGIRGYLNWYQQKPGKAPKLLIYYTSSLHSGVPSRFSGSGSGTDFTLTISSLQPEDFATYHCQQYSKLPWTFGQGTKVEIK
notes: Soluble Fab with Flag tag
B9: M4-3(C1)/ML2 Fab (Fab, V domains shown)
VH: QVQLQESGPGLVKPSQTLSLTCTVSGGSITSGYYWNWIRQHPGKGLEWIGYITFDGSNNYNPSLKSRVTISRDTSKNQFSLKLSSVTAADTAVYYCADFDYWGQGTLVTVSS
VL: DIQMTQSPSSLSASVGDRVTITCRASQGIRNYLNWYQQKPGKAPKLLIYYTSSLHSGVPSRFSGSGSGTDFTLTISSLQPEDFATYYCQQYSKLPWTFGQGTKVEIK
notes: Soluble Fab with Flag tag
B10: M4-3/ML2(C5) Fab (Fab, V domains shown)
VH: QVQLQESGPGLVKPSQTLSLTCTVSGGSITSGYYWNWIRQHPGKGLEWIGYITYDGSNNYNPSLKSRVTISRDTSKNQFSLKLSSVTAADTAVYYCADFDYWGQGTLVTVSS
VL: DIQMTQSPSSLSASVGDRVTITCRASRGIREYLNWYQQKPGKAPKLLIYYTGSLHSGVPSRFSGSGSGTDFTLTISSLQPEDFATYYCQQYSELPWTFGQGTKVEIK
notes: Soluble Fab with Flag tag

These binders were tested against human MCSP expressed on tumor cells (Colo-38, WM266-4, A375, MV-3, HCT-116) (human, UniProt Q6UVK1 30-2322) (assay: cell-based or functional assay).
Sequence of human MCSP expressed on tumor cells (Colo-38, WM266-4, A375, MV-3, HCT-116) (Q6UVK1 30-2322): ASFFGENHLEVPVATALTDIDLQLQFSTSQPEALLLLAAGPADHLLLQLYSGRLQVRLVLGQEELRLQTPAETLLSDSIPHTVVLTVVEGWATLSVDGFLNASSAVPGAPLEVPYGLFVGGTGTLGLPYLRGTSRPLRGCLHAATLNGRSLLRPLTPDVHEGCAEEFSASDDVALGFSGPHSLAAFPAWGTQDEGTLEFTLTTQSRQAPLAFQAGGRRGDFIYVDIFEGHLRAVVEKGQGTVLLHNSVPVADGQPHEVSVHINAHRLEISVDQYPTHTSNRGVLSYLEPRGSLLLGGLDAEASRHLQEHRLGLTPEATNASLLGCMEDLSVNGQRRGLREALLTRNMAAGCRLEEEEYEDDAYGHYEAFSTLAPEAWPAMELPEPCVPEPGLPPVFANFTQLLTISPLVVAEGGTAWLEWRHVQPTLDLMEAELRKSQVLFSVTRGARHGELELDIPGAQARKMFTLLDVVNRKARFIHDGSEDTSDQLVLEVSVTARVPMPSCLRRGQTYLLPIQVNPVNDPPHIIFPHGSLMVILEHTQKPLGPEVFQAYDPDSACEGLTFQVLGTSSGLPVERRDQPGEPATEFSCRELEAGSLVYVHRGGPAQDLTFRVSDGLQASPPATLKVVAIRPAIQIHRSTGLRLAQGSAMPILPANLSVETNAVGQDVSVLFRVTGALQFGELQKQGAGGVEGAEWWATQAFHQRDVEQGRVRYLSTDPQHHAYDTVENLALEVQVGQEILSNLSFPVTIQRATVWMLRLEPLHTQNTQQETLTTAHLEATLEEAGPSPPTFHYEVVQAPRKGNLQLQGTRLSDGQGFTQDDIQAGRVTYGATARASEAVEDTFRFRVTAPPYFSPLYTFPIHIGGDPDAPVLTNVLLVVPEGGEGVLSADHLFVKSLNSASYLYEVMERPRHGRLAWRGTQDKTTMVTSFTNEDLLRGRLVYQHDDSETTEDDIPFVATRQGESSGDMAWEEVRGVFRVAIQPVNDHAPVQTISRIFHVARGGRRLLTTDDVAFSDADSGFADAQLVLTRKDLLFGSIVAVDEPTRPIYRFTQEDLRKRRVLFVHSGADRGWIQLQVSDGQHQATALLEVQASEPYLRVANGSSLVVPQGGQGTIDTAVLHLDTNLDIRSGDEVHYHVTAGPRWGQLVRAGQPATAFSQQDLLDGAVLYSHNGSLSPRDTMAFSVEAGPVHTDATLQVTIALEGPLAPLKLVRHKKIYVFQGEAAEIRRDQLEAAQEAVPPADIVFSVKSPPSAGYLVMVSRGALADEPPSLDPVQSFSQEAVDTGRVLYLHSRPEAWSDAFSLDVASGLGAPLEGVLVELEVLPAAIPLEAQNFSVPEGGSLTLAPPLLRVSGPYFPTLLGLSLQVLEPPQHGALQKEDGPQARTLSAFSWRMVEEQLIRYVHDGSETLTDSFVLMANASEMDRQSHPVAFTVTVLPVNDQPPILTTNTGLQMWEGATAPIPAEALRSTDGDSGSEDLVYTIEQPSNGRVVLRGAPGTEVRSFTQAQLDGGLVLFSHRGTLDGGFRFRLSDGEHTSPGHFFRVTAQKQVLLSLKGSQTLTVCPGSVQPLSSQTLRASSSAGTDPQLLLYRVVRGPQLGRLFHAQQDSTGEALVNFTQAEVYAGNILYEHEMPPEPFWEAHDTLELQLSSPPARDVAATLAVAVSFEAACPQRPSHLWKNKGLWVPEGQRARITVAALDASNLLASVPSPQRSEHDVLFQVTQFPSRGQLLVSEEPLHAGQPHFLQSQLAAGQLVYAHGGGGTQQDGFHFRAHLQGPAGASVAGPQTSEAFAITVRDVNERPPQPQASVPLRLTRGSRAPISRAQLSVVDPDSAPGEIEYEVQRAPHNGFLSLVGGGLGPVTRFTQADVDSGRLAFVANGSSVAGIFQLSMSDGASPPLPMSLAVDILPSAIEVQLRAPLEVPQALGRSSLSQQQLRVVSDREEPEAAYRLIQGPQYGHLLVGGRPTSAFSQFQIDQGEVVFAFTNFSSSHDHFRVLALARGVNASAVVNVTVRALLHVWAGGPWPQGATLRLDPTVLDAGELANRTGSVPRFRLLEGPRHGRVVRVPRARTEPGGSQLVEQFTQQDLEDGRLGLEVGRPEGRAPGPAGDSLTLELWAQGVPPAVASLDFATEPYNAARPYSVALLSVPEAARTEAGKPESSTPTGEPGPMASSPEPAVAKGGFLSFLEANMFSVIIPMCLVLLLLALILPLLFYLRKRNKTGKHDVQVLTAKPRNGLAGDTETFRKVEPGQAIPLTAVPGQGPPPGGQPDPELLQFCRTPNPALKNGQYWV

In order of rising “EC50 of T cell-mediated killing (LDH release), MV-3 cells, human PBMCs E:T 10:1, 27 h” value:
1. B1  ~11.7 pM
2. B2  ~82.2 pM

In order of falling “EC50 of T cell-mediated killing (LDH release), WM266-4 cells, human PBMCs E:T 10:1, 26 h” value:
1. B2  16.8 pM
2. B1  12.9 pM

Each binder was assayed against T1, hu-MCSP(D3 domain)-avi-his (assay: SPR ProteOn XPR36, 25 C; Fab captured via anti-human F(ab')2, MCSP D3 as analyte).
Experimental: Briefly, carboxymethylated dextran biosensor chips (CM5, GE Healthcare) were activated with N-ethyl-N′-(3-dimethylaminopropyl)-carbodiimide hydrochloride (EDC) and N-hydroxysuccinimide (NHS) according to the supplier's instructions. Anti-human F(ab′)2 fragment specific capture antibody was diluted with 10 mM sodium acetate, pH 5.0 at 50 μg/ml before injection at a flow rate of 10 μl/minute to achieve approximately up to 10.000 response units (RU) of coupled capture antibody. Following the injection of the capture antibody, 1 M ethanolamine is injected to block unreacted groups. For kinetics measurements, Fabs from bacterial supernatant or purified Fabs were injected at a flow rate of 10 μl/minute for 300 s and a dissociation of 300 s for capture baseline stabilization. […] The surface of the sensorchip was regenerated by injection of glycine pH 1.5 for 30 s at 90 μl/min followed by injection of NaOH for 20 s at the same flow rate. Association rates (kₒₙ) and dissociation rates (koff) were calculated using a simple one-to-one Langmuir binding model (ProteOn XPR36 Evaluation Software or Scrubber software (BioLogic)) by simultaneously fitting the association and dissociation sensorgrams. The equilibrium dissociation constant (KD) was calculated as the ratio koff/kₒₙ.

In order of falling Kd:
1. B3  5000 pM
2. B6  2000 pM
3. B8  700 pM
4. B10  700 pM
5. B9  600 pM
6. B4  400 pM
7. B7  300 pM
8. B5  20 pM
